One may read the stoichiometry N as the number of molecules, sites or subunits per partner or assembly.

Assay [1] deals with A/bat/Peru/10 N11 NAL protein with ectodomain plus stalk region (influenza A virus A/flat-faced bat/Peru/033/2010 (H18N11)).
Assay [2] has as its target A/bat/Peru/10 H18 HA ectodomain (hemagglutinin of influenza virus A/flat-faced bat/Peru/033/2010, H18N11) (influenza A virus A/flat-faced bat/Peru/033/2010 (H18N11)). Nature of the assay: crystal structure.
Assay [3] has as its target A/bat/Peru/10 N11 NAL ectodomain (neuraminidase-like protein of influenza virus A/flat-faced bat/Peru/033/2010, H18N11) (influenza A virus A/flat-faced bat/Peru/033/2010 (H18N11)). Briefly: crystal structure.

“A/bat/Peru/10 N11 NAL protein with ectodomain plus stalk region (domain or fragment)”: in assay [1], the stoichiometry N came to 4. In assay [2], “A/bat/Peru/10 H18 HA ectodomain (hemagglutinin of influenza virus A/flat-faced bat/Peru/033/2010, H18N11) (domain or fragment)” had a stoichiometry N of 3.

In turn, “A/bat/Peru/10 N11 NAL ectodomain (neuraminidase-like protein of influenza virus A/flat-faced bat/Peru/033/2010, H18N11) (domain or fragment)” gave a stoichiometry N in assay [3] of 4.

The record behind these values is publication PMC3794996.
